Source: patent US6555522B1, “Peptides and other small molecules derived from regions of interacting proteins and uses thereof” (Mount Sinai School of Medicine of the City of New York, priority 1998, dated 2003)
Entries after “also recorded” stand apart in the source; their conditions may differ. Ends that are not written are not given here.

Key:
[1] = biological target: T1, phospholipase C-β2 (PLC-β2) (Homo sapiens, UniProt Q00722); assay: PLC assay, [3H]PIP2 hydrolysis by recombinant PLC-β2; assay type: biochemical; conditions: for affinity of PLC-β2 stimulation compared with parent or comparator peptide (in words) / maximal stimulation / efficacy on PLC-β2 (in words): concentration-effect curves; for stimulation of PLC-β2 activity by peptide itself (in words): basal, no Gβγ unless stated, short peptides at 100 μM; for effect on Gβγ stimulation of PLC-β2 (in words): Gβγ 100 nM
T1 construct: made in house; host or cells: High 5 insect cells (baculovirus); cytosolic fraction used, not purified
T1 sequence (Q00722 whole entry): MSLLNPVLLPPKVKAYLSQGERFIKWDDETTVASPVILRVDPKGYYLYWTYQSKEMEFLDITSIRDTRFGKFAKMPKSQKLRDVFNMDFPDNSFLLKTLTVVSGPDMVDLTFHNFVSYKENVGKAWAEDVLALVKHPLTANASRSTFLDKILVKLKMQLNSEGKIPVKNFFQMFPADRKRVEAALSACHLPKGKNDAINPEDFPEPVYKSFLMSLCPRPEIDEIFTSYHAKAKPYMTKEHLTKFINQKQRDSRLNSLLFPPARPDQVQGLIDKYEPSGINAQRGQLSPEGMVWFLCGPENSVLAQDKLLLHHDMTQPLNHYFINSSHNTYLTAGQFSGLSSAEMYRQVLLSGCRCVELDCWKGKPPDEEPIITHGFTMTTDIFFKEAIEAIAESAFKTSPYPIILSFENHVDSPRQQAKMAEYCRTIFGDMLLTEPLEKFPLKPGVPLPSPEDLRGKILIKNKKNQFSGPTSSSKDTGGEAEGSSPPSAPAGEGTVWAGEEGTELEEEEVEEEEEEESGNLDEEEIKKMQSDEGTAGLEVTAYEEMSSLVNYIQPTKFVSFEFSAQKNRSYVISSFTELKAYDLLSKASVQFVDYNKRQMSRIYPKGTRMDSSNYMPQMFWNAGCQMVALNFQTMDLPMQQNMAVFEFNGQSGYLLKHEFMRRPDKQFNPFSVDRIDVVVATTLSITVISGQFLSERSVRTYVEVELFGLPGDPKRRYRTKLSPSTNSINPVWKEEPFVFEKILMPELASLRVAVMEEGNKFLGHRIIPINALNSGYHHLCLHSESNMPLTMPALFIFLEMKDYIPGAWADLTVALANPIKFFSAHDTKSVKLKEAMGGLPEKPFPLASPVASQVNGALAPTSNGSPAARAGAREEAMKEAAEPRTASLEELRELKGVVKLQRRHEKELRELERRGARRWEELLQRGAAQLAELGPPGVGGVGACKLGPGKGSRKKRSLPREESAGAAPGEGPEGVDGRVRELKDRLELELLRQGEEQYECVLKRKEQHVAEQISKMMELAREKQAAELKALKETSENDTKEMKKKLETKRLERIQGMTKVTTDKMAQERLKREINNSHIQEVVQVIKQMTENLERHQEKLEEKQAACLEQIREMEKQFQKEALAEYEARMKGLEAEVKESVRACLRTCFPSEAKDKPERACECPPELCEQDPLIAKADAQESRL
Method: Recombinant PLC-β2 was expressed in High 5 cells by infection with recombinant baculovirus. Three to four days after infection, the cells were lysed by par bombing to 600 psi. The lysate was then centrifuged, and the cytosolic fraction was collected. Approximately 10-15 μg of cytosolic fraction was used per 100 μl reaction volume. Phospholipid substrate is a mixture of [3H]PIP2 and unlabeled phospholipids. Unlabeled phospholipids, from Sigma (P-6023), are crude phospholipids from bovine brain. The total diphosphoinositide and triphosphoinositide content is 20-40%. The remainder is a mixture of phosphotidylinositol and phosphotidylserine. Phospholipids are sonicated in 10 mM Hepes pH 7.0 to form micelles. A total of 0.01 μCi of [3H]PIP2, corresponding to approximately 7000 cpm, and 5 μg of unlabeled mixed phospholipids are used per reaction.
The PLC assay was performed as previously described (De Vivo, 1994, Meth. Enzymol. 238, 131). Briefly, substrate, PLC-β2, peptide, and Gβγ subunits are mixed on ice in a 100 μl volume buffer containing 10 mM Hepes pH 7.0, 1 mM DTT, 100 mM KCl, 10 mM NaCl, 2 mM EGTA, 1 mM EDTA, and 1 mM MgCl2. Reactions are started by the addition of 25 μl 5 mM CaCl2 and incubated at 32 degrees C. for 15 minutes. Reactions are stopped by the addition of 1 ml CMH (chloroform:methanol:H2O=100:100:1 by volume) and 250 μl 10 mM EDTA. After extraction, 400 μl aqueous phase is counted using a Beckman scintillation counter. All experiments were repeated at least thrice with very similar results. For concentration-effect curves, typical experiments are shown.

adenylyl cyclase 1 (AC1) = biological target: T2, adenylyl cyclase 1 (AC1) (Bos taurus, UniProt P19754); assay: Adenylyl cyclase assay, recombinant AC1 in Sf9 cell membranes; assay type: biochemical, bovine; conditions: for inhibition of Ca2+/CaM-stimulated AC1 activity by peptide alone (in words): CaM 100 nM; for blockade of Gβγ inhibition of Ca2+/CaM-stimulated AC1: CaM 100 nM plus Gβγ 30 nM
T2 construct: made in house; host or cells: Sf9 cells (baculovirus); membranes used
T2 sequence (P19754 whole entry): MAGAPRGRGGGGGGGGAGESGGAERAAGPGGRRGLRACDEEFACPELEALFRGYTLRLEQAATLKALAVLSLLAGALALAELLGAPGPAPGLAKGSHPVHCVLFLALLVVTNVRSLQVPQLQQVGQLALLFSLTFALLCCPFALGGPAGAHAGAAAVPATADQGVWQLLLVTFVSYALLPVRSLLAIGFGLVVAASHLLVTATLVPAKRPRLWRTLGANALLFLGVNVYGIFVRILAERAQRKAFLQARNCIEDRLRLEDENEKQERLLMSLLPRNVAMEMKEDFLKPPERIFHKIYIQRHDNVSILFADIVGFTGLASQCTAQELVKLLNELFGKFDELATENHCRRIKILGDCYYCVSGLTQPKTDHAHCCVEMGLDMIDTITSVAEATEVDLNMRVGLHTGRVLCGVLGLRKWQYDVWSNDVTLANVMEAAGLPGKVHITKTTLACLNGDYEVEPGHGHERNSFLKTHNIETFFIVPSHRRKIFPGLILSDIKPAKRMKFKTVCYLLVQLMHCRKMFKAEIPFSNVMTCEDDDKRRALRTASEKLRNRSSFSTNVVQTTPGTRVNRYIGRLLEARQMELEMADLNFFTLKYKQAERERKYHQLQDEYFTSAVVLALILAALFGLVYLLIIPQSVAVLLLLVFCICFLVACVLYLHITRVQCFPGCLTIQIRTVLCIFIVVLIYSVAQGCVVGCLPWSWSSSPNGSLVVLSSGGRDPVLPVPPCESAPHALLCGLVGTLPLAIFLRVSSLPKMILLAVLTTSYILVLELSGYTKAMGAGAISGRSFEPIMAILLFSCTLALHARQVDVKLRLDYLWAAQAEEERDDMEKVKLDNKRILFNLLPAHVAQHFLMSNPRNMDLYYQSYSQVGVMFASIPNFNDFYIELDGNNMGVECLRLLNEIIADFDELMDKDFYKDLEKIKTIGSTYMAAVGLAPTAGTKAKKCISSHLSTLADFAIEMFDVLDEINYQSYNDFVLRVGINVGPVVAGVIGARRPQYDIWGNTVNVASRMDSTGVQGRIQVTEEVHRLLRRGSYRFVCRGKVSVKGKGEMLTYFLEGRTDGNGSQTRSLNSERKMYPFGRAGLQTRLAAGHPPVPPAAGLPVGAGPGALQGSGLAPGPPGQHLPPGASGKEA
Excerpt: (§1) Expression of G-Protein Subunits And Adenylyl Cyclases. Gβγ was purified from bovine brain (Dingus et al., 1994, Meth. Enzymol. 237, 457-471). Q227L-Gαs was expressed in rabbit reticulocyte lysates. AC2 was expressed in Sf9 cells by infection with recombinant baculovirus (Jacobowitz and Iyengar, 1994, Proc. Natl. Acad. Sci. U.S.A. 91, 10630-10634). AC2 assays have been described (Chen et al., 1995, Science 268, 1166-1169). Bovine AC1 (Jacobowitz et al., 1993, J. Biol. Chem. 268, 3829-3832) was epitope tagged at the N terminus with the FLAG epitope (Jacobowitz and Iyengar, 1994, Proc. Natl. Acad. Sci. U.S.A. 91, 10630-10634) and expressed in Sf9 cells by baculovirus infection.
(§2) Adenylyl Cyclase Assays. AC2 assays have been described (Chen et al., 1995, Science 268, 1166-1169). When required the peptides were mixed with adenylyl cyclase containing membranes and held on ice for 10 min prior to assays. Approximately 1-4 μg of AC2 Sf9 cell membranes per assay tube was used. All assays contained a mixture of protease inhibitors. The final concentration of each inhibitor was leupeptin at 3.2 μg/ml, aprotinin at 2 μg/ml, phenanthroline at 1.0 mM, and phenylmethylsulfonyl fluoride at 1.0 mM. To study Gβγ inhibition, AC1-containing Sf9 cell membranes (1-4 μg per assay tube) was used. In these assays, in addition to the other standard reagents, the assay mixture contained either 1 mM EGTA or 50 μM CaCl2 plus 100 nM calmodulin (CaM). All experiments were repeated two or more times with qualitatively similar results. Typical experiments are shown. Values are mean±SD of triplicate determinations.

adenylyl cyclase 2 (AC2) = biological target: T3, adenylyl cyclase 2 (AC2) (Rattus norvegicus, UniProt P26769); assay: Adenylyl cyclase assay, recombinant AC2 in Sf9 cell membranes; assay type: biochemical; conditions: αs* 2 nM plus Gβγ 50 nM; TTN at 100 μM
T3 construct: made in house; host or cells: Sf9 cells (baculovirus); membranes used
T3 sequence (P26769 whole entry): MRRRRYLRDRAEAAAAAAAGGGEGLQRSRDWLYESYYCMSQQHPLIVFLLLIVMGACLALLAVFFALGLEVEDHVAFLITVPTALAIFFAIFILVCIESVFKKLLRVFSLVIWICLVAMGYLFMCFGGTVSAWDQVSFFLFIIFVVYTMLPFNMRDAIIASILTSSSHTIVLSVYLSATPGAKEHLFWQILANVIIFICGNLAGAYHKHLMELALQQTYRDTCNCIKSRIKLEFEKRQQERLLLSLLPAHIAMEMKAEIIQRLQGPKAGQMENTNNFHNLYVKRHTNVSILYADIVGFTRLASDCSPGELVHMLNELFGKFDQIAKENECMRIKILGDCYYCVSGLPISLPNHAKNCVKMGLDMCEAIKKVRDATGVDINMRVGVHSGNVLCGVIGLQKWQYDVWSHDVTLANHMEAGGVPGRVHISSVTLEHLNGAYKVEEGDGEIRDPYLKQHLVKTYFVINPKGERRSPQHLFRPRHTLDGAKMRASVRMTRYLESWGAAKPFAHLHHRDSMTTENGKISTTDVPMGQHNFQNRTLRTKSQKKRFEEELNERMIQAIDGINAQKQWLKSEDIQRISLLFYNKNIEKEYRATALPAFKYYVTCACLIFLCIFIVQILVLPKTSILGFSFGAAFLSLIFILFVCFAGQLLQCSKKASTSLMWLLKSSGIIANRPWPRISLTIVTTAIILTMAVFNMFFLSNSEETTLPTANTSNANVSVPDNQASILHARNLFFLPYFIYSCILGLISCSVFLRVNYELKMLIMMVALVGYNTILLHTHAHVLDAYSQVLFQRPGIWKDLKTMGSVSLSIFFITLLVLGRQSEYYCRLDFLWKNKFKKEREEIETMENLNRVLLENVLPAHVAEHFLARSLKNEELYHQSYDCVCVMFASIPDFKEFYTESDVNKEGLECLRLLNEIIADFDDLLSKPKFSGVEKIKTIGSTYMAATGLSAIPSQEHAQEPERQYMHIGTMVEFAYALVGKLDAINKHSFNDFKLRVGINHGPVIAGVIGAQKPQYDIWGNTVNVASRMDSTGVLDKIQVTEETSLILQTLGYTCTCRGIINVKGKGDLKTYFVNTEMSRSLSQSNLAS
Excerpt: as §1
as §2, with “In these assays, in addition to the other standard reagents, the assay mixture contained either 1 mM EGTA or 50 μM CaCl2 plus 100 nM calmodulin (CaM). All experiments were repeated two or more times with qualitatively similar results. Typical experiments are shown. Values are mean±SD of triplicate determinations.” left out

PLC-β2 = biological target: T4, PLC-β2 (Homo sapiens, UniProt Q00722); assay: Fluorescent resonance energy transfer binding of DABMI-labeled peptide to Cascade Blue-labeled PLC-β2; conditions: FRET
T4 construct: made in house; host or cells: Sf9 cells; purified as in Runnel et al. 1996
T4 sequence (Q00722 whole entry): as the sequence (Q00722 whole entry) above
Method: For fluorescent resonance energy transfer experiments, recombinant PLC-β2 was expressed in Sf9 cells and purified as described (Runnel et al., 1996, Biochem. 35, 16824) and labeled with the amine-reactive probe, Cascade Blue acetyl azide (Molecular Probes, Eugene Oreg.) by raising the pH to 8.0 and adding a 4-fold excess of probe from a freshly prepared concentrated DMF solution. The reaction was kept on ice for 30 minutes before extensive dialysis in a solution comprising 20 mM Hepes, 0.16 M NaCl, 1 mM DTT, pH 7.2 to remove excess probe. Peptides were labeled with DABMI (4-dimethyl-5aminophenylazophenyl-4′-maleimeide) using an equimolar amount of dye in the absence of reducing agents. The reaction was allowed to proceed for 30 minutes at room temperature before quenching with 5 mM DTT. The final labeling ratios, as determined by absorption, were 1:1 for CB-PLC-β2 and 0.8 for the two DABMI-peptides. Fluorescence spectra were taken on an ISS-PCL (ISS Champaign, Ill.) photon counting spectrofluorometer using a 3×3 mm cuvette and exciting at 380 nm and scanning from 400-560 nm.

| Substance | affinity of PLC-β2 stimulation compared with parent or comparator peptide (in words) [1] | stimulation of PLC-β2 activity by peptide itself (in words) [1] | further results |
| --- | --- | --- | --- |
| S97, 98D Gβ96-101: six amino acid Gβ96-101 peptide with serines 97 and 98 substituted with Asp (RDDWVM) |  | did not stimulate |  |
| Gβ96-101: six amino acid peptide encoding Gβ residues 96-101 (SEQ ID NO:8) (RSSWVM; listed as Homo sapiens) | considerably lower affinity | did stimulate |  |
| H91A: Gβ86-105 peptide with H91A substitution (TTNKVAAIPLRSSWVMTCAY) | decreased the affinity |  | maximal stimulation / efficacy on PLC-β2 (in words) [1]: did not affect maximal stimulation |
| m-GGL: Gβ115-135 peptide with Tyr-124 converted to Val (GGLDNICSIVNLKTREGNVRV) |  |  | inhibition of Ca2+/CaM-stimulated AC1 activity by peptide alone (in words) (adenylyl cyclase 1 (AC1)): did not inhibit the AC1 activity as extensively; blockade of Gβγ inhibition of Ca2+/CaM-stimulated AC1 (adenylyl cyclase 1 (AC1)): no effect; inhibition of Gβγ-stimulated AC2 activity (adenylyl cyclase 2 (AC2)): less effective; effect on Gβγ stimulation of PLC-β2 (in words) [1]: inactive |
| S97, 98C: Gβ86-105 peptide with serines 97 and 98 substituted with cysteine (TTNKVHAIPLRCCWVMTCAY) | greatly reduced affinity |  |  |
| Gβ96-98: three amino acid peptide encoding Gβ residues 96-98 (RSS) |  | did not stimulate |  |
| R96A: Gβ86-105 peptide with R96A substitution (TTNKVHAIPLASSWVMTCAY) | decreased the affinity; also recorded: large shift in affinity |  | maximal stimulation / efficacy on PLC-β2 (in words) [1]: did not affect maximal stimulation |
| S97,98R Gβ86-105 peptide: Gβ86-105 peptide with both serines 97 and 98 substituted with arginine (TTNKVHAIPLRRRWVMTCAY) |  |  | increase in affinity of PLC-β2 stimulation versus Gβ86-105 peptide ([1]; substituted Gβ86-105 peptides): five-fold increase |
| S97R substituted peptide: six amino acid Gβ96-101 peptide with arginine at position 97 (SEQ ID NO:10) (RRSWVM; listed as Homo sapiens) | increase affinity; also recorded: higher affinity |  |  |

Further lines, with some results ahead:

| affinity of PLC-β2 stimulation compared with parent or comparator peptide (in words) [1] | stimulation of PLC-β2 activity by peptide itself (in words) [1] | Substance | further results |
| --- | --- | --- | --- |
| increase affinity |  | S98R Gβ96-101: six amino acid Gβ96-101 peptide with arginine substituted at position 98 (RSRWVM; UniProt P62873 96-101, looked up, variant S98R) |  |
| decreased the affinity |  | K89A: Gβ86-105 peptide with K89A substitution (TTNAVHAIPLRSSWVMTCAY) | maximal stimulation / efficacy on PLC-β2 (in words) [1]: did not affect maximal stimulation |
|  | no measurable effects | FLLT: unrelated peptide encoding region 660-688 of adenylyl cyclase 6, same overall charge as Gβ86-105 (KYSRKVDPRFGAYVACALLVFCFICFIQL; UniProt O43306 660-688, looked up, fragment) [reference compound] |  |
|  | did stimulate | Gβ89-101: thirteen amino acid peptide encoding Gβ residues 89-101 (SEQ ID NO:7) (KVHAIPLRSSWVM; listed as Homo sapiens) |  |
|  | not capable of activating | m-TTN: Gβ86-105 peptide with Met-101 substituted by Asn (TTNKVHAIPLRSSWVNTCAY) | inhibition of Ca2+/CaM-stimulated AC1 activity by peptide alone (in words) (adenylyl cyclase 1 (AC1)): greatly reduced capacity to inhibit; blockade of Gβγ inhibition of Ca2+/CaM-stimulated AC1 (adenylyl cyclase 1 (AC1)): did not affect; inhibition of Gβγ-stimulated AC2 activity (adenylyl cyclase 2 (AC2)): much less efficacious; binding to PLC-β2 (in words) (PLC-β2): did not display measurable binding |
|  | inactive | S97, 98D: Gβ86-105 peptide with serines 97 and 98 substituted (D per FIG. 7C legend; text says asparagine) (TTNKVHAIPLRDDWVMTCAY; not fully specified) |  |
|  | did not stimulate | K89A, H91A, and R96A triple substituted peptide: Gβ86-105 peptide with K89, H91 and R96 substituted simultaneously (TTNAVAAIPLASSWVMTCAY; UniProt P62873 86-105, looked up, variant K89A H91A R96A) | effect on Gβγ stimulation of PLC-β2 (in words) [1]: did not affect |
